B1: CPEB3 Ribozyme (parent)
chain: GGGGGCCACAGCAGAAGCGUUCACGUCGCGGCCCCUGUCAGAUUCUGGUGAAUCUGCGAAUUCUGCUGU

Variants of B1 are the subject of the data set. Briefly: self-cleavage, relative activity (ratio to wild type); higher = more cleavage; co-transcriptional.
As for A13G G28U, the self-cleavage was determined as 0.15.

A13G G28C: the self-cleavage was found to be 0.18.

As for A13G A60G, the self-cleavage was found to be 0.66.

As for A13G A60C, the self-cleavage was 0.268.

For A13G A60U, the self-cleavage was 0.282.

For A13U C63G, the self-cleavage was found to be 0.294.

As for A13U C63A, the self-cleavage amounted to 0.317.

On to A13U C39G, for which the self-cleavage amounted to 0.508.

A13U C39A: the self-cleavage amounted to 0.394.

Take A13U U21C: the self-cleavage was found to be 0.691.

On to A13U U21G, for which the self-cleavage was 0.173.

Take A13U U21A: the self-cleavage amounted to 0.785.

Consider A13C G68A, for which the self-cleavage was determined as 0.921.

A13C G68C: the self-cleavage was 0.917.

Take A13G G48A: the self-cleavage came out at 0.968.

Take A13G G48U: the self-cleavage amounted to 0.914.

Turning to A13U G50U, the self-cleavage stood at 0.857.

On to A13U G50A, for which the self-cleavage was 0.776.

For A13U G50C, the self-cleavage came to 0.756.

As for A13U C35G, the self-cleavage was determined as 0.258.

For the variant A13U C27A, the self-cleavage was found to be 0.207.

Take A13G G68A: the self-cleavage worked out at 1.01.

Turning to A13G C29A, the self-cleavage came out at 0.42.

For the variant A13G C29G, the self-cleavage came to 0.126.

In the case of G14A A23G, the self-cleavage was found to be 0.444.

Turning to G14A A23C, the self-cleavage was found to be 0.582.

Turning to G14A G31C, the self-cleavage was 0.183.

As for G14A G31A, the self-cleavage was 0.249.

On to A13G G58A, for which the self-cleavage was 0.902.

Regarding A13G G58U, the self-cleavage is 1.01.

In the case of A13G G58C, the self-cleavage amounted to 0.878.

In the case of A13U G25A, the self-cleavage is 0.168.

For A13U G17A, the self-cleavage was determined as 0.102.

For the variant A13U G17U, the self-cleavage came to 0.163.

Take A13C U44A: the self-cleavage was 0.7.

Consider A13C U44G, for which the self-cleavage is 0.802.

Consider A13C U44C, for which the self-cleavage came out at 0.51.

As to A13U G41A, the self-cleavage was found to be 0.263.

Take A13U G41C: the self-cleavage came out at 0.247.

In the case of G14A A59G, the self-cleavage came to 0.704.

G14A A59U: the self-cleavage stood at 0.369.

Turning to A13G U61G, the self-cleavage stood at 0.53.

As to A13G U61C, the self-cleavage amounted to 0.402.

With A13G U43C, the self-cleavage is 0.785.

For the variant A13G U43G, the self-cleavage is 0.539.

For A13U U61G, the self-cleavage was found to be 0.46.

A13U U61C: the self-cleavage was found to be 0.32.

For A13U U61A, the self-cleavage stood at 0.456.

Take A13G C35G: the self-cleavage was determined as 0.446.

For the variant A13U A23G, the self-cleavage was 0.618.

A13U A23U: the self-cleavage was 0.963.

A13C U69G: the self-cleavage worked out at 0.96.

As for G14A G50U, the self-cleavage is 0.743.

Consider G14A G50A, for which the self-cleavage came out at 0.778.

Regarding G14A G50C, the self-cleavage came to 0.61.

As to G14A C35U, the self-cleavage was found to be 0.668.

For the variant A13G G50U, the self-cleavage was 0.973.

For the variant A13G G50A, the self-cleavage is 0.896.

As for A13G G50C, the self-cleavage was 0.881.

In the case of A13U G58A, the self-cleavage came to 0.758.

In the case of G14A A16U, the self-cleavage stood at 0.353.

G14A A16G: the self-cleavage came out at 0.463.

G14A A16C: the self-cleavage is 0.136.

For A13C G65C, the self-cleavage amounted to 0.278.

As to A13C G65A, the self-cleavage is 0.431.

A13G G65U: the self-cleavage was 0.561.

Take A13U C33A: the self-cleavage is 0.759.

In the case of A13U C33G, the self-cleavage was 0.333.

With A13C U21A, the self-cleavage is 0.772.

Take A13C U21C: the self-cleavage was 0.496.

As for A13C U21G, the self-cleavage was 0.135.

A13U G47U: the self-cleavage is 0.881.

With A13U G47A, the self-cleavage stood at 0.893.

Turning to A13U U46G, the self-cleavage was found to be 0.905.

Regarding A13U U46A, the self-cleavage is 0.942.

As for A13U U46C, the self-cleavage was found to be 0.873.

Take A13G U62C: the self-cleavage was found to be 0.449.

In the case of A13G U62A, the self-cleavage came to 0.622.

For A13G U62G, the self-cleavage amounted to 0.445.

Regarding A13G G30A, the self-cleavage came to 0.856.

As for A13G G30C, the self-cleavage was 0.711.

As to A13G C66G, the self-cleavage is 0.489.

Turning to A13U A42U, the self-cleavage is 0.494.

With A13U A42G, the self-cleavage came out at 0.645.

Consider A13U G56C, for which the self-cleavage is 0.31.

With A13U G56A, the self-cleavage worked out at 0.688.

As for A13G C18G, the self-cleavage worked out at 0.169.

A13G C18A: the self-cleavage was determined as 0.0625.

On to A13G U64C, for which the self-cleavage is 1.

On to A13G U64A, for which the self-cleavage is 0.843.

Take A13G U64G: the self-cleavage worked out at 0.745.

Take G14A C18G: the self-cleavage stood at 0.208.

As for G14A C18U, the self-cleavage was found to be 0.179.

Consider G14A C18A, for which the self-cleavage came to 0.163.

A13G C57G: the self-cleavage is 0.36.

For A13G C57U, the self-cleavage turned out to be 0.358.

For the variant A13U G37C, the self-cleavage was determined as 0.186.

On to A13U G37U, for which the self-cleavage came to 0.196.

As for A13G G31A, the self-cleavage was found to be 0.775.

Regarding A13G G31U, the self-cleavage was 0.555.

For the variant G14A C29U, the self-cleavage worked out at 0.113.

In the case of G14A G47U, the self-cleavage worked out at 0.889.

As for G14A G47C, the self-cleavage turned out to be 0.827.

A13G A15G: the self-cleavage stood at 0.82.

Take A13G A15C: the self-cleavage is 0.196.

Consider G14A G41A, for which the self-cleavage was 0.196.

Turning to A13U U69G, the self-cleavage turned out to be 0.961.

With A13U U69C, the self-cleavage came to 1.

For the variant A13U U69A, the self-cleavage was 0.89.

Regarding A13G C54A, the self-cleavage was 0.642.

As to A13G C54G, the self-cleavage amounted to 0.772.

With G14A C66G, the self-cleavage worked out at 0.287.

Regarding G14A C66A, the self-cleavage is 0.262.

Regarding G14A C66U, the self-cleavage is 0.375.

Regarding A13G C24U, the self-cleavage is 0.712.

On to A13G C24A, for which the self-cleavage turned out to be 0.54.

As for A13U A51C, the self-cleavage stood at 0.828.

Turning to A13U A51U, the self-cleavage came out at 0.858.

For the variant A13U A51G, the self-cleavage stood at 0.837.

In the case of A13C U49A, the self-cleavage was found to be 0.922.

For the variant A13C U49C, the self-cleavage is 0.842.

A13C U49G: the self-cleavage worked out at 0.933.

As to A13G G19A, the self-cleavage was found to be 0.155.

Consider A13G G19U, for which the self-cleavage came out at 0.0922.

Regarding A13U U20C, the self-cleavage came out at 0.145.

Consider A13U U20G, for which the self-cleavage was found to be 0.185.

For A13G G41A, the self-cleavage was determined as 0.448.

Take A13G G37U: the self-cleavage was 0.184.

Take A13G G37A: the self-cleavage came out at 0.172.

Consider A13G G37C, for which the self-cleavage amounted to 0.109.

Consider G14A C32A, for which the self-cleavage is 0.336.

With G14A C32G, the self-cleavage was 0.212.

Consider G14A C39G, for which the self-cleavage turned out to be 0.385.

With G14A C39U, the self-cleavage was 0.362.

G14A C39A: the self-cleavage turned out to be 0.22.

With G14A G28C, the self-cleavage was determined as 0.146.

For the variant G14A C63A, the self-cleavage stood at 0.829.

A13G C63U: the self-cleavage came to 0.842.

On to A13G C63A, for which the self-cleavage was 0.26.

For the variant A13G C63G, the self-cleavage stood at 0.504.

Turning to A13U G31U, the self-cleavage came out at 0.402.

Consider A13U G31C, for which the self-cleavage came to 0.217.

Regarding G14A A42C, the self-cleavage amounted to 0.343.

Turning to A13C U55C, the self-cleavage was determined as 0.439.

Regarding A13U U53A, the self-cleavage was determined as 0.514.

Regarding A13U U53G, the self-cleavage stood at 0.398.

As for A13G A42U, the self-cleavage came to 0.74.

Regarding A13U C45A, the self-cleavage worked out at 0.764.

In the case of A13U C45G, the self-cleavage stood at 0.814.

In the case of A13U A15G, the self-cleavage is 0.79.

A13U A15U: the self-cleavage worked out at 0.56.

For A13U A15C, the self-cleavage stood at 0.354.

As for A13U A52C, the self-cleavage is 0.8.

As to A13U A52G, the self-cleavage is 0.902.

Consider A13U A52U, for which the self-cleavage turned out to be 0.776.

As to A13C U62G, the self-cleavage worked out at 0.355.

On to A13G C32G, for which the self-cleavage came to 0.318.

As for A13G C32A, the self-cleavage amounted to 0.773.

For A13G C32U, the self-cleavage came out at 0.916.

G14A C57G: the self-cleavage was 0.258.

For the variant G14A C57A, the self-cleavage was 0.264.

On to A13G C27U, for which the self-cleavage is 0.168.

Take A13U C29A: the self-cleavage worked out at 0.178.

With A13U C29G, the self-cleavage was 0.0771.

Consider A13U C29U, for which the self-cleavage is 0.138.

As to A13C G50U, the self-cleavage is 0.909.

In the case of A13C G50C, the self-cleavage is 0.787.

Values taken from the RNAGym collection of RNA variant scans (doi:10.7554/elife.80360).
